Tests used:
hMCM2-7 = hMCM2-7 (human, UniProt P49736;P25205;P33991;P33992;Q14566;P33993 1-904;1-808;1-863;1-734;1-821;1-719); test: negative stain EM, in-solution loading; double hexamers; loaded by ORC1-5, ORC6, CDC6, CDT1deltaN, ATP; more than without ORC6; 25 mM HEPES-KOH pH 7.5, 250 mM KGlu, 1 mM DTT, 4 mM MgOAc, 0.1% Triton X-100, 1 mM ATP or ATPgS, 30 C; high-salt wash adds 300 mM NaCl; in-solution: HEPES-NaOH, 0.05% Triton X-100; conditions: protein: recombinant; tags: N-terminal Twin-Strep MCM2; N-terminal 8xHis MCM4; chain copies: 2;2;2;2;2;2; blunt
hORC1-5;hCDC6 = hORC1-5;hCDC6 (human;human, UniProt Q13415;Q13416;Q9UBD5;O43929;O43913;Q99741 1-861;1-577;1-711;1-436;1-435;1-560, |); test: pull-down via Strep-hORC1; CDC6 retained with ORC1-5 only with DNA; 25 mM HEPES-KOH pH 7.5, 250 mM KGlu, 1 mM DTT, 4 mM MgOAc, 0.1% Triton X-100, 1 mM ATP or ATPgS, 30 C; high-salt wash adds 300 mM NaCl; in-solution: HEPES-NaOH, 0.05% Triton X-100; conditions: protein: recombinant;recombinant; tags: N-terminal Twin-Strep on ORC1 (removed with SUMOstar protease in some preps);GST, cleaved; copies: 1;1;1;1;1;1; blunt

Binder | binding result (hMCM2-7) | binding result (hORC1-5;hCDC6)
158 bp lamin B2 (dsDNA) DNA 1: GCCTGCCGCGCATGCGCACGAGGCACCCGGCGCGTCTATACAGCGTGTTGCCGCCGGGGCGGAGCCCGGTCGCATCACGTGACGAAGAGTCAGCTTGTGCAACAGCGTCGGAGGCTCACTAGAAAAAAAAGGGCAGGGTCCCATGCATCGCCTGGGTC DNA 2: GACCCAGGCGATGCATGGGACCCTGCCCTTTTTTTTCTAGTGAGCCTCCGACGCTGTTGCACAAGCTGACTCTTCGTCACGTGATGCGACCGGGCTCCGCCCCGGCGGCAACACGCTGTATAGACGCGCCGGGTGCCTCGTGCGCATGCGCGGCAGGC | binds | 
90 bp ARS1 (dsDNA) DNA 1: GTTATTTTACAGATTTTATGTTTAGATCTTTTATGCTTGCTTTTCAAAAGGCCTGCAGGCAAGTGCACAAACAATACTTAAATAAATACTA DNA 2: TAGTATTTATTTAAGTATTGTTTGTGCACTTGCCTGCAGGCCTTTTGAAAAGCAAGCATAAAAGATCTAAACATAAAATCTGTAAAATAAC |  | binds
